Experimental data from US20250154253A1 (ROCKEFELLER UNIVERSITY, published 2025).
Values belong to the binder of their own block, whether it stands above or below them.

Tests used:
FcγRI [1] = biological target: T1, FcγRI (human, UniProt P12314); assay: no assay stated; drawn summary table of graded binding (- to ++++), for which the text cites Weitzenfeld et al. 2019
T1 construct: also called human FcγRI; hFcγRI

FcγRIIb [2] = biological target: T2, FcγRIIb (human, UniProt P31994); assay: as above
T2 construct: also called human FcγRIIb; hFcγRIIB
T2 sequence (receptor, looked up): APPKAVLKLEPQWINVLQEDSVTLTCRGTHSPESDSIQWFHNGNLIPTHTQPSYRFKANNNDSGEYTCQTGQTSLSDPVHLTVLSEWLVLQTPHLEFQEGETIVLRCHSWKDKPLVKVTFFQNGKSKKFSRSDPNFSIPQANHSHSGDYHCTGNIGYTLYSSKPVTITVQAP

FcγRIV = biological target: T3, FcγRIV; assay: no assay stated; drawn summary table of graded binding (- to ++++), for which the text cites Nimmerjahn et al. 2005
T3 construct: also called mouse FcγRIV; mFcγRIV
T3 chain: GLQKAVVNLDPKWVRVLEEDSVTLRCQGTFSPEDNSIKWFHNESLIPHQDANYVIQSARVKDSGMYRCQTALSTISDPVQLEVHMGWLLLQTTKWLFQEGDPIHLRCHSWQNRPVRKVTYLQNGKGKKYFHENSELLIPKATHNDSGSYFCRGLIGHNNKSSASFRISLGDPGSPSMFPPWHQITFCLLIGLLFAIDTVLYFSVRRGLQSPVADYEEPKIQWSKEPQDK

FcγRIII = biological target: T4, FcγRIII (mouse, UniProt P08508); assay: as above
T4 construct: also called mouse FcγRIII; mFcγRIII
T4 sequence (receptor, looked up): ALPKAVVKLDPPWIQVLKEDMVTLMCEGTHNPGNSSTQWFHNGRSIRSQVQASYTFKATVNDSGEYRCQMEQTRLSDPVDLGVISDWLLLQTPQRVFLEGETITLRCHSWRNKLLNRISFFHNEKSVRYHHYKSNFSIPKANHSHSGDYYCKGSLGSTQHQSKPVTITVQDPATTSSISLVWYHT

FcγRIIb [3] = biological target: T5, FcγRIIb (mouse, UniProt P08101); assay: as above
T5 construct: also called mouse FcγRIIb; mFcγRIIB
T5 sequence (receptor, looked up): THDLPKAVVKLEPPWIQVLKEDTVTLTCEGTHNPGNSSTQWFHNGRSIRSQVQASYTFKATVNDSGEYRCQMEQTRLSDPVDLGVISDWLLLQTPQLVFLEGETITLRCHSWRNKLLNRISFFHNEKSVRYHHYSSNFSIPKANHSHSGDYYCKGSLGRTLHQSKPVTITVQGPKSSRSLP

FcγRI [4] = biological target: T6, FcγRI (mouse, UniProt P26151); assay: as above
T6 construct: also called mouse FcγRI; mFcγRI
T6 sequence (receptor, looked up): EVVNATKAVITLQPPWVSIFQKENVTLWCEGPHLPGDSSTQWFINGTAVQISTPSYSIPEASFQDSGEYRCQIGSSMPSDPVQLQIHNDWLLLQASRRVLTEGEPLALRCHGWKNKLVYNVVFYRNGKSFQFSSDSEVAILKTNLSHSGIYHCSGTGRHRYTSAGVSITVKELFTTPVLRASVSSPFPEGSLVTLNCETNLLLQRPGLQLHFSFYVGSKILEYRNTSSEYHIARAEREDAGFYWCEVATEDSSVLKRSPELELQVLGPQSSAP

[5] = biological target: T7, recombinant mouse CD47 (SinoBiological 57231-MNAH) (mouse, UniProt Q61735 19-140, limits assumed); assay: ELISA on plate-coated recombinant mouse CD47 (1 ug/mL), HRP-conjugated anti-IgG, absorbance 450 nm
T7 construct: Bought protein coated on ELISA plates at 1 ug/mL; also called mCD47
T7 sequence (looked up): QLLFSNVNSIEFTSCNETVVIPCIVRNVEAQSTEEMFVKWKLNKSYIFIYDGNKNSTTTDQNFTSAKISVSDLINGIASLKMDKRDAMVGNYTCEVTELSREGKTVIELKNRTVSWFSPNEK

[6] = biological target: T8, recombinant human SIRPα-hFc (SinoBiological 11612-H02H1) (human, UniProt P78324 31-370); assay: flow cytometry: recombinant hSIRPα incubated with RBCs of WT mice
T8 construct: Bought fusion protein; also called hSIRPα; recombinant hSIRPα; not shown: human Fc (hFc)
T8 sequence (P78324 31-370 limits assumed): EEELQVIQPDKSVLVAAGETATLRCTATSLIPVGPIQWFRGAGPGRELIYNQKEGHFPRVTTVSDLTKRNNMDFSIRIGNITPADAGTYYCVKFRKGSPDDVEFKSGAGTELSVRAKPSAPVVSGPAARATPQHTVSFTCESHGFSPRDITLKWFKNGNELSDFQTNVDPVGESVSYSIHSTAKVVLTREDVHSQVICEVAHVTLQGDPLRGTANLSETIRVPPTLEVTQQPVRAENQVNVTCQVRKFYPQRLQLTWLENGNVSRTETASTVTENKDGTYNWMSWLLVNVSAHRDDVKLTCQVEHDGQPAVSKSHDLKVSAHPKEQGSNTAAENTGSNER

T1 sequence (P12314 16-288 limits assumed): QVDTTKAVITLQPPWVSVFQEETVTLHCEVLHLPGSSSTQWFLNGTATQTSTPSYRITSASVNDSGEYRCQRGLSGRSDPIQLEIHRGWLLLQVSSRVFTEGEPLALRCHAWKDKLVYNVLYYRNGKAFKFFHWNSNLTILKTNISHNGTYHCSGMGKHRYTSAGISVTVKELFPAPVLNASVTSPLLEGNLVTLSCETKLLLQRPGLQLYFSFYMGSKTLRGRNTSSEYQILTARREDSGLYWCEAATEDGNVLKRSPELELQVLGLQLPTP

binding result (FcγRIV): no binding
binding result (FcγRIII): no binding
binding result (FcγRIIb [3]): no binding
binding result (FcγRI [4]): no binding
B2: IgG1 D265A (antibody)
heavy chain constant region: TKGPSVYPLAPGSAAQTNSMVTLGCLVKGYFPEPVTVTWNSGSLSSGVHTFPAVLQSDLYTLSSSVTVPSSTWPSQTVTCNVAHPASSTKVDKKIVPRDCGCKPCICTVPEVSSVFIFPPKPKDVLTITLTPKVTCVVVAISKDDPEVQFSWFVDDVEVHTAQTKPREEQINSTFRSVSELPIMHQDWLNGKEFKCRVNSAAFPAPIEKTISKTKGRPKAPQVYTIPPPKEQMAKDKVSLTCMITNFFPEDITVEWQWNGQPAENYKNTQPIMDTDGSYFVYSKLNVQKSNWEAGNTFTCSVLHEGLHNHHTEKSLSHSPGK
notes: also called mIgG1-D265A; mouse IgG1 D265A (Fc format)

binding result (FcγRIII): binds
binding result (FcγRIIb [3]): binds
binding result (FcγRI [4]): binds
B6: IgG2a (antibody)
heavy chain constant region: TTAPSVYPLAPVCGGTTGSSVTLGCLVKGYFPEPVTLTWNSGSLSSGVHTFPALLQSGLYTLSSSVTVTSNTWPSQTITCNVAHPASSTKVDKKIEPRVPITQNPCPPLKECPPCAAPDLLGGPSVFIFPPKIKDVLMISLSPMVTCVVVDVSEDDPDVQISWFVNNVEVHTAQTQTHREDYNSTLRVVSALPIQHQDWMSGKEFKCKVNNRALPSPIEKTISKPRGPVRAPQVYVLPPPAEEMTKKEFSLTCMITGFLPAEIAVDWTSNGRTEQNYKNTATVLDSDGSYFMYSKLRVQKSTWERGSLFACSVVHEGLHNHLTTKTISRSLGK
notes: The variable region is not specified there; also called mIgG2a; mouse IgG2a subclass (Fc format)

binding result [6]: no binding
B7: mouse CD47 on RBCs of WT (C57BL/6J) mice (receptor, UniProt Q61735 19-303, looked up)
chain: QLLFSNVNSIEFTSCNETVVIPCIVRNVEAQSTEEMFVKWKLNKSYIFIYDGNKNSTTTDQNFTSAKISVSDLINGIASLKMDKRDAMVGNYTCEVTELSREGKTVIELKNRTVSWFSPNEKILIVIFPILAILLFWGKFGILTLKYKSSHTNKRIILLLVAGLVLTVIVVVGAILLIPGEKPVKNASGLGLIVISTGILILLQYNVFMTAFGMTSFTIAILITQVLGYVLALVGLCLCIMACEPVHGPLLISGLGIIALAELLGLVYMKFVASNQRTIQPPRNR
notes: whole, on cells; The legend names the cells (RBCs from WT mice); also called mCD47 on WT RBCs

Continued, binder first:

B1: 5F9-GAALIE (antibody, human IgG1)
heavy chain: QVQLVQSGAEVKKPGASVKVSCKASGYTFTNYNMHWVRQAPGQRLEWMGTIYPGNDDTSYNQKFKDRVTITADTSASTAYMELSSLRSEDTAVYYCARGGYRAMDYWGQGTLVTVSSASTKGPSVFPLAPSSKSTSGGTAALGCLVKDYFPEPVTVSWNSGALTSGVHTFPAVLQSSGLYSLSSVVTVPSSSLGTQTYICNVNHKPSNTKVDKRVEPKSCDKTHTCPPCPAPELLAGPSVFLFPPKPKDTLMISRTPEVTCVVVDVSHEDPEVKFNWYVDGVEVHNAKTKPREEQYNSTYRVVSVLTVLHQDWLNGKEYKCKVSNKALPLPEEKTISKAKGQPREPQVYTLPPSREEMTKNQVSLTCLVKGFYPSDIAVEWESNGQPENNYKTTPPVLDSDGSFFLYSKLTVDKSRWQQGNVFSCSVMHEALHNHYTQKSLSLSPGK
light chain: DIVMTQSPLSLPVTPGEPASISCRSSQSIVYSNGNTYLGWYLQKPGQSPQLLIYKVSNRFSGVPDRFSGSGSGTDFTLKISRVEAEDVGVYYCFQGSHVPYTFGQGTKLEIKVDAPSVFIFPPSDEQLKSGTASVVCLLNNFYPREAKVQWKVDNALQSGNSQESVTEQDSKDSTYSLSSTLTLSKADYEKHKVYACEVTHQGLSSPVTKSFNRGEC
notes: also called 5F9-hIgG1-GAALIE; GAALIE 5F9 ab
binding result (FcγRI [1]): binds
binding result (FcγRIIb [2]): binds

B3: MIAP301-mIgG1-D265A (antibody)
heavy: QVKLLQSGAALVKPGASVKMSCQASGYSFTDYWVTWVKQSHGQSLEWIGEIYPSNTVTNFNDNFKGKATLTVDKSTSTAYMELSRLTSEDSAIYYCTRLGNSGYRVGWFLYWGQGTLVTVISASTKGPSVYPLAPGSAAQTNSMVTLGCLVKGYFPEPVTVTWNSGSLSSGVHTFPAVLQSDLYTLSSSVTVPSSTWPSQTVTCNVAHPASSTKVDKKIVPRDCGCKPCICTVPEVSSVFIFPPKPKDVLTITLTPKVTCVVVAISKDDPEVQFSWFVDDVEVHTAQTKPREEQINSTFRSVSELPIMHQDWLNGKEFKCRVNSAAFPAPIEKTISKTKGRPKAPQVYTIPPPKEQMAKDKVSLTCMITNFFPEDITVEWQWNGQPAENYKNTQPIMDTDGSYFVYSKLNVQKSNWEAGNTFTCSVLHEGLHNHHTEKSLSHSPGK
VL: SDTVLTQSPALAVSPGERVTISCKASESVSSHMHWYQQKPGQQPKLLIYKASNLASGVPARFSGSGSGTDFTLTIDPVEADDTATYFCQQGWNGPFTFGAGTRLELKRAVD
notes: Heavy chain assembled from the VH entry and the constant region entry named for the Fc format; also called mIgG1-D265A Fc variant of MIAP301
binding result [5]: binds

B4: MIAP301-mIgG2a (antibody)
heavy: QVKLLQSGAALVKPGASVKMSCQASGYSFTDYWVTWVKQSHGQSLEWIGEIYPSNTVTNFNDNFKGKATLTVDKSTSTAYMELSRLTSEDSAIYYCTRLGNSGYRVGWFLYWGQGTLVTVISASTTAPSVYPLAPVCGGTTGSSVTLGCLVKGYFPEPVTLTWNSGSLSSGVHTFPALLQSGLYTLSSSVTVTSNTWPSQTITCNVAHPASSTKVDKKIEPRVPITQNPCPPLKECPPCAAPDLLGGPSVFIFPPKIKDVLMISLSPMVTCVVVDVSEDDPDVQISWFVNNVEVHTAQTQTHREDYNSTLRVVSALPIQHQDWMSGKEFKCKVNNRALPSPIEKTISKPRGPVRAPQVYVLPPPAEEMTKKEFSLTCMITGFLPAEIAVDWTSNGRTEQNYKNTATVLDSDGSYFMYSKLRVQKSTWERGSLFACSVVHEGLHNHLTTKTISRSLGK
VL: B3 VL
notes: Heavy chain assembled from the VH entry and the constant region entry named for the Fc format; also called mIgG2a Fc variant of MIAP301; anti-mCD47 ab clone MIAP301 (mIgG2a Fc)
binding result [5]: binds

B5: MIAP301-mIgG1 (antibody)
heavy: QVKLLQSGAALVKPGASVKMSCQASGYSFTDYWVTWVKQSHGQSLEWIGEIYPSNTVTNFNDNFKGKATLTVDKSTSTAYMELSRLTSEDSAIYYCTRLGNSGYRVGWFLYWGQGTLVTVISAS
VL: B3 VL
notes: also called mIgG1 Fc variant of MIAP301; not shown: mouse IgG1 heavy chain constant region, wild type
binding result [5]: binds
